In publication PMC3258140 (Nucleic Acids Research, 2011):

Molecular target: the molecule itself
Test: crystal structure

B1: Thermotoga maritima Mre11^(H94Q, F291S) (residues L7M-385), nuclease deficient (enzyme)
chain: MKILHTSDWHLGVTSWTSSRPVDRREELKKALDKVVEEAEKREVDLILLTGDLLHSRNNPSVVALHDLLDYLKRMMRTAPVVVLPGNQDWKGLKLFGNFVTSISSDITFVMSFEPVDVEAKRGQKVRILPFPYPDESEALRKNEGDFRFFLESRLNKLYEEALKKEDFAIFMGHFTVEGLAGYAGIEQGREIIINRALIPSVVDYAALGHIHSFREIQKQPLTIYPGSLIRIDFGEEADEKGAVFVELKRGEPPRYERIDASPLPLKTLYYKKIDTSALKSIRDSCRNFPGYVRVVYEEDSGILPDLMGEIDNLVKIERKSRREIEEVLRESPEEFKEELDKLDYFELFKEYLKKREENHEKLLKILDELLDEVKKSEA
  binding result: binds
